From article PMC9520691 (ACS Omega, 2022)
Several values for one entry are separate records, joined by “and”; a condition that tells them apart may be missing. Equal values may be shown once.

Target: the molecule itself
Assay: AUC

| Protein | stoichiometry N |
| --- | --- |
| full length ODC wildtype (enzyme, human, UniProt P11926 1-461, looked up) MNNFGNEEFDCHFLDEGFTAKDILDQKINEVSSSDDKDAFYVADLGDILKKHLRWLKALPRVTPFYAVKCNDSKAIVKTLAATGTGFDCASKTEIQLVQSLGVPPERIIYANPCKQVSQIKYAANNGVQMMTFDSEVELMKVARAHPKAKLVLRIATDDSKAVCRLSVKFGATLRTSRLLLERAKELNIDVVGVSFHVGSGCTDPETFVQAISDARCVFDMGAEVGFSMYLLDIGGGFPGSEDVKLKFEEITGVINPALDKYFPSDSGVRIIAEPGRYYVASAFTLAVNIIAKKIVLKEQTGSDDEDESSEQTFMYYVNDGVYGSFNCILYDHAHVKPLLQKRPKPDEKYYSSSIWGPTCDGLDRIVERCDLPEMHVGDWMLFENMGAYTVAAASTFNGFQRPTIYYVMSGPAWQLMQQFQNPDFPPEVEEQDASTLPVSCAWESGMKRHRAACASASINV | 2 |
| full length ODC G84R (enzyme, human, UniProt P11926 1-461, looked up) MNNFGNEEFDCHFLDEGFTAKDILDQKINEVSSSDDKDAFYVADLGDILKKHLRWLKALPRVTPFYAVKCNDSKAIVKTLAATRTGFDCASKTEIQLVQSLGVPPERIIYANPCKQVSQIKYAANNGVQMMTFDSEVELMKVARAHPKAKLVLRIATDDSKAVCRLSVKFGATLRTSRLLLERAKELNIDVVGVSFHVGSGCTDPETFVQAISDARCVFDMGAEVGFSMYLLDIGGGFPGSEDVKLKFEEITGVINPALDKYFPSDSGVRIIAEPGRYYVASAFTLAVNIIAKKIVLKEQTGSDDEDESSEQTFMYYVNDGVYGSFNCILYDHAHVKPLLQKRPKPDEKYYSSSIWGPTCDGLDRIVERCDLPEMHVGDWMLFENMGAYTVAAASTFNGFQRPTIYYVMSGPAWQLMQQFQNPDFPPEVEEQDASTLPVSCAWESGMKRHRAACASASINV | 2 and 3 |
